Results taken from patent US20130060011A1 (published 2013).

B1: (scFv)2 (antiMCSP/anti huCD3e) (bispecific antibody)
scFv: DIVLTQSPSSLSASLGDRVTISCSASQGIRNYLNWYQQRPDGTVKLLIYYTSSLHSGVPSRFSGSGSGTDYSLTISNLEPEDIATYYCQQYSKLPWTFGGGTKLEIKGGGGSGGGGSGGGGSEVQLQESGPGLVKPSQSLSLTCSVTGYSITSGYYWNWIRQFPGNKLEWMGYITYDGSNNYNPSLKNRISITRDTSKNQFFLKLNSVTTEDTATYYCADFDYWGQGTTLTVSSGGGGSEVQLVESGGGLVQPGGSLRLSCAASGYSFTGYTMNWVRQAPGKGLEWVALINPYKGVSTYNQKFKDRFTISVDKSKNTAYLQMNSLRAEDTAVYYCARSGYYGDSDWYFDVWGQGTLVTVSSVEGGSGGSGGSGGSGGVDDIQMTQSPSSLSASVGDRVTITCRASQDIRNYLNWYQQKPGKAPKLLIYYTSRLESGVPSRFSGSGSGTDYTLTISSLQPEDFATYYCQQGNTLPWTFGQGTKVEIKHHHHHH
B2: hu Fab (MCSP)-Crossfab (CD3) (bispecific antibody)
heavy: EVQLQESGPGLVKPSQSLSLTCSVTGYSITSGYYWNWIRQFPGNKLEWMGYITYDGSNNYNPSLKNRISITRDTSKNQFFLKLNSVTTEDTATYYCADFDYWGQGTTLTVSSASTKGPSVFPLAPSSKSTSGGTAALGCLVKDYFPEPVTVSWNSGALTSGVHTFPAVLQSSGLYSLSSVVTVPSSSLGTQTYICNVNHKPSNTKVDKKVEPKSCDGGGGSGGGGSDIQMTQSPSSLSASVGDRVTITCRASQDIRNYLNWYQQKPGKAPKLLIYYTSRLESGVPSRFSGSGSGTDYTLTISSLQPEDFATYYCQQGNTLPWTFGQGTKVEIKSSASTKGPSVFPLAPSSKSTSGGTAALGCLVKDYFPEPVTVSWNSGALTSGVHTFPAVLQSSGLYSLSSVVTVPSSSLGTQTYICNVNHKPSNTKVDKKVEPKSC
light: DIVLTQSPSSLSASLGDRVTISCSASQGIRNYLNWYQQRPDGTVKLLIYYTSSLHSGVPSRFSGSGSGTDYSLTISNLEPEDIATYYCQQYSKLPWTFGGGTKLEIKRTVAAPSVFIFPPSDEQLKSGTASVVCLLNNFYPREAKVQWKVDNALQSGNSQESVTEQDSKDSTYSLSSTLTLSKADYEKHKVYACEVTHQGLSSPVTKSFNRGEC
chain: EVQLVESGGGLVQPGGSLRLSCAASGYSFTGYTMNWVRQAPGKGLEWVALINPYKGVSTYNQKFKDRFTISVDKSKNTAYLQMNSLRAEDTAVYYCARSGYYGDSDWYFDVWGQGTLVTVSSASVAAPSVFIFPPSDEQLKSGTASVVCLLNNFYPREAKVQWKVDNALQSGNSQESVTEQDSKDSTYSLSSTLTLSKADYEKHKVYACEVTHQGLSSPVTKSFNRGEC

What was measured:
[1] = biological target: human MCSP (human, UniProt Q6UVK1 30-2322); assay: cell-based or functional assay
human MCSP, sequence (Q6UVK1 30-2322): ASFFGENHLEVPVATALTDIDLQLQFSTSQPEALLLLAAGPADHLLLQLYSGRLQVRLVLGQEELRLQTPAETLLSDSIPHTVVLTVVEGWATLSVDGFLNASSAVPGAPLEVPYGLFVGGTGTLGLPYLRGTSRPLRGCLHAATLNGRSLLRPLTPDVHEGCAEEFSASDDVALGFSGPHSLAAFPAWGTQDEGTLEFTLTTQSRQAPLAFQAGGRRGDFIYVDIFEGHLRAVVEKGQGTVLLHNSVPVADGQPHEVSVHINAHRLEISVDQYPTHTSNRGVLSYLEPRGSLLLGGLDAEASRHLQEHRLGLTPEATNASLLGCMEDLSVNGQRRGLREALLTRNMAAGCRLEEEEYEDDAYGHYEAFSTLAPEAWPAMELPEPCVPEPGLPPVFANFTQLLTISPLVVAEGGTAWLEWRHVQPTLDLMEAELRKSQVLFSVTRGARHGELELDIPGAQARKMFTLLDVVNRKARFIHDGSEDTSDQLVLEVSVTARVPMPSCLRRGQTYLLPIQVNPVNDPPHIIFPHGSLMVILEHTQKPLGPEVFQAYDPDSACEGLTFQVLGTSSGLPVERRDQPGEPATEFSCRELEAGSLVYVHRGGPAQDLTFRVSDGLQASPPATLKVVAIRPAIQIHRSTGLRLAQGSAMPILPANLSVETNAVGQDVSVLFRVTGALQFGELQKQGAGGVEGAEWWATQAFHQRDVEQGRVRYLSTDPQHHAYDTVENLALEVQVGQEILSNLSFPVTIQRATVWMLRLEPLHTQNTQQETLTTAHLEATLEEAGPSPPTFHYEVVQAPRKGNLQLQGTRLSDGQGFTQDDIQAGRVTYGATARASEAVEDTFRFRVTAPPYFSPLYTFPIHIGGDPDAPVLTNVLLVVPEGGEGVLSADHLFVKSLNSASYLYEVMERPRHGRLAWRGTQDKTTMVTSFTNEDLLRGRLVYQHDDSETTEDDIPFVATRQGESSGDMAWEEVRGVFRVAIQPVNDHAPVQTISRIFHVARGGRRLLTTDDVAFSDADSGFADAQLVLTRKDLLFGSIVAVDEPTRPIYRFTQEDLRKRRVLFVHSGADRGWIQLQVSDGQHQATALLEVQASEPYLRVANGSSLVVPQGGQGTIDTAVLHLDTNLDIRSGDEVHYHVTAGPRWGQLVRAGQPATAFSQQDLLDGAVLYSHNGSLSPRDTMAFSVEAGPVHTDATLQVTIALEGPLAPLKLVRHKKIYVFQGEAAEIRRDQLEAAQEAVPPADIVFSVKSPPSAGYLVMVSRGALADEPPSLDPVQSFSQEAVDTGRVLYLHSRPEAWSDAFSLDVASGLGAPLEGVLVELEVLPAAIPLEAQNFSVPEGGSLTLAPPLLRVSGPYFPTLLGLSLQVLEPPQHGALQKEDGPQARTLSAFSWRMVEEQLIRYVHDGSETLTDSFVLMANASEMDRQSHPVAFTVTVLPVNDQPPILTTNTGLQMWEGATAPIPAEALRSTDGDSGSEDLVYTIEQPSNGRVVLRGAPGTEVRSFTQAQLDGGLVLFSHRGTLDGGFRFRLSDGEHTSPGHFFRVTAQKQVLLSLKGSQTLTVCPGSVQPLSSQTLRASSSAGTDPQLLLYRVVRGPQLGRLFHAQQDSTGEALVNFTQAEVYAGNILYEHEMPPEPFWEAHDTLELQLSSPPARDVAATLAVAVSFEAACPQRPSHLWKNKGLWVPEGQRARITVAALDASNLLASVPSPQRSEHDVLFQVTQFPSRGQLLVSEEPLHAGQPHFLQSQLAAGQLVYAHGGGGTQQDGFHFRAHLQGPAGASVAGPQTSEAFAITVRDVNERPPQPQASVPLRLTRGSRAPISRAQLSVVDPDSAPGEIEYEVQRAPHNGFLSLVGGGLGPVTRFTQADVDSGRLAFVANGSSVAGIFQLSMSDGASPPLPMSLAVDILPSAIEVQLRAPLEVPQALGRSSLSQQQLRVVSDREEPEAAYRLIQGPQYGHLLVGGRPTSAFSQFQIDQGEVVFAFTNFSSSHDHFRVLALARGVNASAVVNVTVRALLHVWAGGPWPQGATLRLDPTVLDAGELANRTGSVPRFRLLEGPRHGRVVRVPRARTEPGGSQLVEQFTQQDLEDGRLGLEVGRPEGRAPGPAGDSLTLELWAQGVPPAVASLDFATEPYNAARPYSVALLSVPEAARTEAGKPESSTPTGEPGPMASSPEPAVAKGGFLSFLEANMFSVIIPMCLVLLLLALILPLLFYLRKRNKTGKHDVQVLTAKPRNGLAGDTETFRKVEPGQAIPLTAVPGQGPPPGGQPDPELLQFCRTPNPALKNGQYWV

[2] = biological target: human CD3 (human, UniProt P07766 23-207); assay: cell-based or functional assay
human CD3, sequence (P07766 23-207): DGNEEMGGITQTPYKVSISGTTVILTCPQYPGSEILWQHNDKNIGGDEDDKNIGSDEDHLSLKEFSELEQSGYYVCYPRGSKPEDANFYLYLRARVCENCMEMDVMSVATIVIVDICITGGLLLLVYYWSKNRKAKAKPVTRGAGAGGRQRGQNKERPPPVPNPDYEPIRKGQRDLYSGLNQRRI

| Binder | Killing (as measured by LDH release) of MV-3 tumor cells upon co-culture with human PBMCs (E:T ratio=10:1), 24 hours; EC50 [1] | Killing (as measured by LDH release) of MV-3 tumor cells upon co-culture with human PBMCs (E:T ratio=10:1), 24 hours; EC50 [2] |
| --- | --- | --- |
| B1 | 0.057 nM | 0.057 nM |
| B2 | 0.0254 nM | 0.0254 nM |
